Test results taken from FireProtDB.

B1: Ribonuclease HI, P0A7Y4 (parent)
chain: MLKQVEIFTDGSCLGNPGPGGYGAILRYRGREKTFSAGYTRTTNNRMELMAAIVALEALKEHCEVILSTDSQYVRQGITQWIHNWKKRGWKTADKKPVKNVDLWQRLDAALGQHQIKWEWVKGHAGHPENERCDELARAAAMNPTLEDTGYQVEV
B2: Azurin, P00282 (parent)
chain: MLRKLAAVSLLSLLSAPLLAAECSVDIQGNDQMQFNTNAITVDKSCKQFTVNLSHPGNLPKNVMGHNWVLSTAADMQGVVTDGMASGLDKDYLKPDDSRVIAHTKLIGSGEKDSVTFDVSKLKEGEQYMFFCTFPGHSALMKGTLTLK
B3: Subtilisin BPN', P00782 (parent)
chain: MRGKKVWISLLFALALIFTMAFGSTSSAQAAGKSNGEKKYIVGFKQTMSTMSAAKKKDVISEKGGKVQKQFKYVDAASATLNEKAVKELKKDPSVAYVEEDHVAHAYAQSVPYGVSQIKAPALHSQGYTGSNVKVAVIDSGIDSSHPDLKVAGGASMVPSETNPFQDNNSHGTHVAGTVAALNNSIGVLGVAPSASLYAVKVLGADGSGQYSWIINGIEWAIANNMDVINMSLGGPSGSAALKAAVDKAVASGVVVVAAAGNEGTSGSSSTVGYPGKYPSVIAVGAVDSSNQRASFSSVGPELDVMAPGVSIQSTLPGNKYGAYNGTSMASPHVAGAAALILSKHPNWTNTQVRSSLENTTTKLGDSFYYGKGLINVQAAAQ

Variants of: B1
Details: Escherichia coli (strain K12); pH 3; 49.8 °C; Thermal; CD; glycine-HCl 10 mM; reversible: yes; structure 2RN2; whole UniProt chain shown
In the case of K95A, the “ddG of mutation (higher = less stable)” value is reported as -0.1 kcal/mol. In the case of D94R K95G, the “ddG of mutation (higher = less stable)” value is reported as -1.1 kcal/mol.

Same assay, conditions: Escherichia coli (strain K12); pH 5.5; 49.8 °C; Thermal; CD; Sodium acetate 20 mM; reversible: yes; structure 2RN2; whole UniProt chain shown
In the case of K95A, the “ddG of mutation (higher = less stable)” value is reported as -0.1 kcal/mol. For K95G, the “ddG of mutation (higher = less stable)” value was -1.9 kcal/mol.

Same assay, conditions: Escherichia coli (strain K12); pH 5.5; Thermal; CD; Sodium acetate 20 mM; reversible: yes; structure 2RN2; whole UniProt chain shown
In the case of K95A, the Tm is reported as 52 °C, the “change of melting temperature, mutant - wild type (higher = more stable)” value (“change of melting temperature, mutant” for short) is reported as 0.4 °C and the “unfolding enthalpy (van 't Hoff)” value is reported as 96.4 kcal/mol. With K95G the Tm was 52 °C, the “change of melting temperature, mutant” value was 6.8 °C and the “unfolding enthalpy (van 't Hoff)” value was 90.4 kcal/mol.

Same assay, conditions: Escherichia coli (strain K12); pH 3; Thermal; CD; glycine-HCl 10 mM; reversible: yes; structure 2RN2; whole UniProt chain shown
For K95G, the Tm was 49.8 °C, the “change of melting temperature, mutant” value was 5.7 °C and the “unfolding enthalpy (van 't Hoff)” value was 102 kcal/mol. With D94R K95G the Tm was 53.4 °C, the “change of melting temperature, mutant” value was 3.6 °C and the “unfolding enthalpy (van 't Hoff)” value was 127 kcal/mol.

Same assay, conditions: Escherichia coli (strain K12); pH 5.5; 49.8 °C; Thermal; CD; glycine-HCl 10 mM; reversible: yes; structure 2RN2; whole UniProt chain shown
In the case of D94R K95G, the “ddG of mutation (higher = less stable)” value is reported as -1.5 kcal/mol.

Same assay, conditions: Escherichia coli (strain K12); pH 5.5; Thermal; CD; glycine-HCl 10 mM; reversible: yes; structure 2RN2; whole UniProt chain shown
With D94R K95G the Tm was 57.5 °C, the “change of melting temperature, mutant” value was 5.5 °C and the “unfolding enthalpy (van 't Hoff)” value was 102 kcal/mol.

Same assay, conditions: Escherichia coli (strain K12); pH 3; Thermal; CD; Gly-HCl buffer 10 mM; NaCl 0.1 M; reversible: yes; structure 2RN2; whole UniProt chain shown
With V74I the “change of melting temperature, mutant” value was 2.4 °C and the “ddG of mutation (higher = less stable)” value was -0.7 kcal/mol. For V74A, the “change of melting temperature, mutant” value was -7.6 °C and the “ddG of mutation (higher = less stable)” value was 2.2 kcal/mol. In the case of V74L, the “change of melting temperature, mutant” value is reported as 3.7 °C and the “ddG of mutation (higher = less stable)” value is reported as -1.1 kcal/mol.

Same assay, conditions: Escherichia coli (strain K12); pH 5.5; Thermal; CD; sodium acetate 20 mM; NaCl 0.1 M; reversible: yes; structure 2RN2; whole UniProt chain shown
In the case of V74I, the “change of melting temperature, mutant” value is reported as 2.1 °C and the “ddG of mutation (higher = less stable)” value is reported as -0.6 kcal/mol. In the case of V74A, the “change of melting temperature, mutant” value is reported as -12.7 °C and the “ddG of mutation (higher = less stable)” value is reported as 3.4 kcal/mol. For V74L, the “change of melting temperature, mutant” value was 3.3 °C and the “ddG of mutation (higher = less stable)” value was -0.9 kcal/mol.

Same assay, conditions: Escherichia coli (strain K12); pH 3; 50.1 °C; Thermal; CD; glycine-HCl 10 mM; NaCl 0.1 M; reversible: yes; structure 2RN2; whole UniProt chain shown
In the case of E119V K60R, the “ddG of mutation (higher = less stable)” value is reported as 0.06 kcal/mol. In the case of Q80L K117R, the “ddG of mutation (higher = less stable)” value is reported as 0.03 kcal/mol.

Same assay, conditions: Escherichia coli (strain K12); pH 3; Thermal; CD; glycine-HCl 10 mM; NaCl 0.1 M; reversible: yes; structure 2RN2; whole UniProt chain shown
In the case of E119V K60R, the Tm is reported as 49.9 °C, the “change of melting temperature, mutant” value is reported as -0.2 °C and the “unfolding enthalpy (van 't Hoff)” value is reported as 109 kcal/mol. For Q80L K117R, the Tm was 50 °C, the “change of melting temperature, mutant” value was -0.1 °C and the “unfolding enthalpy (van 't Hoff)” value was 104 kcal/mol.

Same assay, conditions: Escherichia coli (strain K12); pH 5.5; 52.7 °C; Thermal; CD; Sodium acetate 20 mM; NaCl 0.1 M; reversible: yes; structure 2RN2; whole UniProt chain shown
For E119V K60R, the “ddG of mutation (higher = less stable)” value was -0.63 kcal/mol.

Same assay, conditions: Escherichia coli (strain K12); pH 5.5; Thermal; CD; Sodium acetate 20 mM; NaCl 0.1 M; reversible: yes; structure 2RN2; whole UniProt chain shown
In the case of E119V K60R, the Tm is reported as 55 °C, the “change of melting temperature, mutant” value is reported as 2.3 °C and the “unfolding enthalpy (van 't Hoff)” value is reported as 98.6 kcal/mol. With Q80L K117R the Tm was 53.5 °C, the “change of melting temperature, mutant” value was 0.8 °C and the “unfolding enthalpy (van 't Hoff)” value was 83.1 kcal/mol.

Variants of: B2
Details: Pseudomonas aeruginosa (strain ATCC 15692 / DSM 22644 / CIP 104116 / JCM 14847 / LMG 12228 / 1C / PRS 101 / PAO1); pH 7.5; 40 °C; GdnHCl; Fluorescence; Tris Cl 2 mM; reversible: Yes; structure 5AZU; whole UniProt chain shown
With I27S the “ddG of mutation (higher = less stable)” value was 6.4 kcal/mol and the unfolding free energy was 2.2 kcal/mol. With F130S the “ddG of mutation (higher = less stable)” value was 6.4 kcal/mol and the unfolding free energy was 2.2 kcal/mol.

Same assay, conditions: Pseudomonas aeruginosa (strain ATCC 15692 / DSM 22644 / CIP 104116 / JCM 14847 / LMG 12228 / 1C / PRS 101 / PAO1); pH 7; 20 °C; GdnHCl; CD; phosphate 5 mM; reversible: yes; structure 5AZU; whole UniProt chain shown
With H66G the denaturant m value was 3.94 kcal/mol/M, the “denaturant midpoint (higher = more stable)” value was 1.1 M and the unfolding free energy was 4.35 kcal/mol.

Variants of: B3
Details: Bacillus amyloliquefaciens; pH 5; 20 °C; Thermal; DSC; Sodium acetate 100 mM; reversible: yes; structure 1SUP; whole UniProt chain shown
With K87E the “ddG of mutation (higher = less stable)” value was 1 kcal/mol and the unfolding free energy was 1.1 kcal/mol.

Same assay, conditions: Bacillus amyloliquefaciens; pH 9.63; Thermal; DSC; glycine 50 mM; reversible: yes; structure 1SUP; whole UniProt chain shown
For M157F Y324K N325S S328C, the Tm was 63.5 °C, the “unfolding enthalpy (calorimetric)” value was 140 kcal/mol and the “unfolding enthalpy (van 't Hoff)” value was 140 kcal/mol.

Same assay, conditions: Bacillus amyloliquefaciens; pH 8; Thermal; DSC; Tris-HCl 50 mM; KCl 50 mM; structure 1SUP; whole UniProt chain shown
With T129C the Tm was 56.4 °C and the “change of melting temperature, mutant” value was -2.5 °C.
